Where a chain is given by its changes, count along the chain named.
T1: biotinylated human DLL3 protein expressed as a human IgG1 fusion protein (human, UniProt Q9NYJ7 27-492, limits assumed, biotinylated)
T1 sequence: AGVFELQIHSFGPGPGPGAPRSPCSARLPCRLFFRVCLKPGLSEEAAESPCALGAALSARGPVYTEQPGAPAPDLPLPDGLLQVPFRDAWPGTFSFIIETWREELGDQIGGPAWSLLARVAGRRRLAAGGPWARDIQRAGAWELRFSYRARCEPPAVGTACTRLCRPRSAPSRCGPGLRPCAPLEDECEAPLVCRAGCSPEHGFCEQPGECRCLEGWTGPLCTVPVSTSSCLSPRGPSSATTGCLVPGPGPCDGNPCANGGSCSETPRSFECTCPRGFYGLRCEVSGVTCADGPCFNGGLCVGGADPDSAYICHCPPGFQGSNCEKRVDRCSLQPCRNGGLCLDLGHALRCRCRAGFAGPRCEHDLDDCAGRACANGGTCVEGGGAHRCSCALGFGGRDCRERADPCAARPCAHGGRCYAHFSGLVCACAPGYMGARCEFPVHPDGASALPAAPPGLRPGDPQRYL

B1: 3D08 anti-DLL3 trispecific protein (other)
chain: EVQLVESGGGLVQPGGSLTLSCAASGSSVRFLSMAWYRQAPGKKRELVAGISANGSTDYIDSVKGRFTISRDNAKNSVYLQMNSLRAEDTAVYYCYAYRWTNRYTYWGQGTLVTVSS
notes: not shown: linker 1808, anti-albumin sdAb, linker 1808, anti-CD3 fragment, His6 1819
B2: 4C07 anti-DLL3 trispecific protein (other)
chain: B1 chain with S28K, R30S, N54D, T57K, N102T, Y104L
notes: as for B1
B3: 4A04 anti-DLL3 trispecific protein (other)
chain: B1 chain with S28R, R30S, N54R, T101S, N102T
notes: as for B1
B4: 3D010 anti-DLL3 trispecific protein (other)
chain: B1 chain with V29K, R30S, N54D, D58S, N102T
notes: as for B1
B5: 4C01 anti-DLL3 trispecific protein (other)
chain: B1 chain with N54D, D58V, T101K, N102T
notes: as for B1
B6: 3G011 anti-DLL3 trispecific protein (other)
chain: B1 chain with S28R, R30S, N54D, D58G, T101A, N102T
notes: as for B1
B7: 3G08 anti-DLL3 trispecific protein (other)
chain: B1 chain with S28R, R30S, A53K, N54D, N102T, Y104V
notes: as for B1
B8: 3F08 anti-DLL3 trispecific protein (other)
chain: B1 chain with S28R, R30S, N54D, D58L, T101H, N102T
notes: as for B1
B9: 4B08 anti-DLL3 trispecific protein (other)
chain: B1 chain with R30S, L32M, N54D, D61A, N102T, Y104S
notes: as for B1
B10: 3G010 anti-DLL3 trispecific protein (other)
chain: B1 chain with R30S, A53V, N54D, T101R, N102T
notes: as for B1
B11: 3H09 anti-DLL3 trispecific protein (other)
chain: B1 chain with G26K, R30S, N54D, N102T, Y104A
notes: as for B1
B12: 4A02 anti-DLL3 trispecific protein (other)
chain: B1 chain with A53N, N54D, T101K, N102T
notes: as for B1
B13: 3E011 anti-DLL3 trispecific protein (other)
chain: B1 chain with S28K, R30S, A53R, N54D, N102T, Y106F
notes: as for B1
B14: 4A05 anti-DLL3 trispecific protein (other)
chain: B1 chain with R30S, M34L, N54D, T101K, N102T, Y104R
notes: as for B1
B15: 4B02 anti-DLL3 trispecific protein (other)
chain: B1 chain with S28R, R30S, N54D, D58T, N102T, Y104F
notes: as for B1
B16: 3H03 anti-DLL3 trispecific protein (other)
chain: B1 chain with A53T, N54D, Y98L, N102T
notes: as for B1
B17: 3F05 anti-DLL3 trispecific protein (other)
chain: B1 chain with S28K, R30S, A53T, N54D, N102T, Y104R
notes: as for B1
B18: 4C010 anti-DLL3 trispecific protein (other)
chain: B1 chain with S28K, R30S, L32M, N54D, N102T, Y104L
notes: as for B1
B19: 3G07 anti-DLL3 trispecific protein (other)
chain: B1 chain with R30S, A53R, N54D, N102S
notes: as for B1
B20: 3E01 anti-DLL3 trispecific protein (other)
chain: B1 chain with R30K, N54D, D58M, T101H, N102T
notes: as for B1
B21: 4A011 anti-DLL3 trispecific protein (other)
chain: B1 chain with S28K, R30S, N54D, D58T, T101K, N102T
notes: as for B1
B22: 4A010 anti-DLL3 trispecific protein (other)
chain: B1 chain with N54D, D58V, N102T, T105K
notes: as for B1
B23: 3E02 anti-DLL3 trispecific protein (other)
chain: B1 chain with S28G, A53P, N54D, N102R
notes: as for B1
B24: 4B06 anti-DLL3 trispecific protein (other)
chain: B1 chain with S28R, R30S, N54D, I60F, N102R
notes: as for B1
B25: 4C011 anti-DLL3 trispecific protein (other)
chain: B1 chain with S28R, R30S, N54D, D58V, N102R
notes: as for B1
B26: 4A06 anti-DLL3 trispecific protein (other)
chain: B1 chain with A53R, N54D, N102T, Y104R
notes: as for B1
B27: 3G02 anti-DLL3 trispecific protein (other)
chain: B1 chain with R30S, N54D, S56R, T101R, N102T
notes: as for B1
B28: 3F06 anti-DLL3 trispecific protein (other)
chain: B1 chain with S28R, R30S, N54D, D58S, T101A, N102T
notes: as for B1
B29: 3F010 anti-DLL3 trispecific protein (other)
chain: B1 chain with G26Y, R30S, F31R, N54D, D58V, N102T, Y104N
notes: as for B1
B30: 3H07 anti-DLL3 trispecific protein (other)
chain: B1 chain with S28R, R30S, N54D, D58S, T101R, N102T
notes: as for B1
B31: 3F09 anti-DLL3 trispecific protein (other)
chain: B1 chain with A53R, N54D, T101G, N102T
notes: as for B1
B32: 4A09 anti-DLL3 trispecific protein (other)
chain: B1 chain with R30K, N54D, D61G, N102T, Y104V
notes: as for B1
B33: 4A08 anti-DLL3 trispecific protein (other)
chain: B1 chain with R30S, N54D, D58N, T101R, N102T
notes: as for B1
B34: 3F011 anti-DLL3 trispecific protein (other)
chain: B1 chain with R30S, A53T, N54D, T101R, N102T
notes: as for B1
B35: 4A01 anti-DLL3 trispecific protein (other)
chain: B1 chain with A53Q, N54D, T101R, N102T
notes: as for B1
B36: 3G04 anti-DLL3 trispecific protein (other)
chain: B1 chain with A23V, S27T, R30S, N54D, D58I, N102T, Y104R
notes: as for B1
B37: 4A07 anti-DLL3 trispecific protein (other)
chain: B1 chain with S28K, R30S, N54D, D58L, N102T, T105R
notes: as for B1
B38: 4D01 anti-DLL3 trispecific protein (other)
chain: B1 chain with N54D, D58V, N102T, Y104R
notes: as for B1
B39: 4D03 anti-DLL3 trispecific protein (other)
chain: B1 chain with N54T, N102R
notes: as for B1
B40: 4C08 anti-DLL3 trispecific protein (other)
chain: B1 chain with A23V, S28Q, R30S, N54D, I60F, N102R
notes: as for B1
B41: 3E04 anti-DLL3 trispecific protein (other)
chain: B1 chain with R30H, A53R, N54D, N102T, T105R
notes: as for B1
B42: 4B05 anti-DLL3 trispecific protein (other)
chain: B1 chain with S28R, R30S, N54D, S56H, N102T, Y106H
notes: as for B1
B43: 3H010 anti-DLL3 trispecific protein (other)
chain: B1 chain with R30S, N54D, D58A, N102T, Y104R
notes: as for B1
B44: 4C02 anti-DLL3 trispecific protein (other)
chain: B1 chain with S28K, R30S, N54D, D58T, N102T, Y104F
notes: as for B1
B45: 4C05 anti-DLL3 trispecific protein (other)
chain: B1 chain with R30S, F31N, N54D, D58A, N102T, Y104R
notes: as for B1
B46: 3G01 anti-DLL3 trispecific protein (other)
chain: B1 chain with R30S, N54D, D58L, N102T, T105A
notes: as for B1
B47: 4B09 anti-DLL3 trispecific protein (other)
chain: B1 chain with R30S, N54D, D61S, R99S, N102T
notes: as for B1
B48: 3E09 anti-DLL3 trispecific protein (other)
chain: B1 chain with A53R, N54D, T101S, N102T
notes: as for B1
B49: 3G09 anti-DLL3 trispecific protein (other)
chain: B1 chain with R30S, F31V, N54D, D61G, N102T, Y104T
notes: as for B1
B50: 3G06 anti-DLL3 trispecific protein (other)
chain: B1 chain with R30K, N54D, D58L, N102T, Y104R
notes: as for B1
B51: 3H01 anti-DLL3 trispecific protein (other)
chain: B1 chain with A23V, R30K, A53G, N54D, D58T, N102T, Y104R
notes: as for B1
B52: 3E03 anti-DLL3 trispecific protein (other)
chain: B1 chain with A53G, N54D, T101M, N102T
notes: as for B1
B53: 3D011 anti-DLL3 trispecific protein (other)
chain: B1 chain with R30S, F31R, N54D, T57R, N102T, T105K
notes: as for B1
B54: 4D02 anti-DLL3 trispecific protein (other)
chain: B1 chain with S28K, R30S, N54R, R99Q, N102T
notes: as for B1
B55: 3D09 anti-DLL3 trispecific protein (other)
chain: B1 chain with R30S, F31R, D58T, N102T, T105R
notes: as for B1
B56: 4B04 anti-DLL3 trispecific protein (other)
chain: B1 chain with R30L, I51V, A53S, N54D, T101R, N102T
notes: as for B1
B57: 4B01 anti-DLL3 trispecific protein (other)
chain: B1 chain with R30K, A53R, N54D, N102T, Y104F
notes: as for B1
B58: 4C03 anti-DLL3 trispecific protein (other)
chain: B1 chain with S28K, R30S, L32M, A53V, N54D, T101R, N102T
notes: as for B1

These binders were tested against T1, biotinylated human DLL3 protein … (assay: Octet BLI, single 50 nM).
Method in brief: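 Analyte: trispecific anti-DLL3 proteins in conditioned medium, concentration known; ligand: captured DLL3 fusion; output: binding affinity.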

Row | Kd | Binder
1 | 17 nM | B1
2 | 7.5 nM | B2
3 | 35 nM | B3
4 | 14 nM | B4
5 | 5.1 nM | B5
6 | 17 nM | B6
7 | 12 nM | B7
8 | 14 nM | B8
9 | 10 nM | B9
10 | 6.9 nM | B10
11 | 14 nM | B11
12 | 9 nM | B12
13 | 11 nM | B13
14 | 9.4 nM | B14
15 | 7.1 nM | B15
16 | 9.9 nM | B16
17 | 7.5 nM | B17
18 | 7 nM | B18
19 | 13 nM | B19
20 | 16 nM | B20

Row | Kd | Binder
21 | 5.6 nM | B21
22 | 2.3 nM | B22
23 | 12 nM | B23
24 | 16 nM | B24
25 | 6 nM | B25
26 | 13 nM | B26
27 | 20 nM | B27
28 | 9.9 nM | B28
29 | 4.4 nM | B29
30 | 13 nM | B30
31 | 12 nM | B31
32 | 9 nM | B32
33 | 24 nM | B33
34 | 7.1 nM | B34
35 | 10 nM | B35
36 | 8.8 nM | B36
37 | 9.8 nM | B37
38 | 3.7 nM | B38
39 | 26 nM | B39
40 | 16 nM | B40

Row | Kd | Binder
41 | 11 nM | B41
42 | 18 nM | B42
43 | 8.6 nM | B43
44 | 6.8 nM | B44
45 | 8.3 nM | B45
46 | 8.2 nM | B46
47 | 5.4 nM | B47
48 | 10 nM | B48
49 | 7.3 nM | B49
50 | 12 nM | B50
51 | 9 nM | B51
52 | 20 nM | B52
53 | 5.3 nM | B53
54 | 30 nM | B54
55 | 32 nM | B55
56 | 12 nM | B56
57 | 11 nM | B57
58 | 6.6 nM | B58

Source: patent publication US20240141072A1 (published 2024)
